# Test results reported in patent US10919943B2, “Mutant proteins enabling agrochemical control of plant gene expression” (The Regents of the University of California, priority 2016, dated 2021).
# T1: wild type HAB1 (Arabidopsis thaliana, UniProt O49686+Q9CAJ0, A160V/F108A/F159V/K59R/M158I/S122G/T162D/V81I/Y58H)
# T1 construct: expressed in transfected cells
# T1 sequence (Q9CAJ0 4-511): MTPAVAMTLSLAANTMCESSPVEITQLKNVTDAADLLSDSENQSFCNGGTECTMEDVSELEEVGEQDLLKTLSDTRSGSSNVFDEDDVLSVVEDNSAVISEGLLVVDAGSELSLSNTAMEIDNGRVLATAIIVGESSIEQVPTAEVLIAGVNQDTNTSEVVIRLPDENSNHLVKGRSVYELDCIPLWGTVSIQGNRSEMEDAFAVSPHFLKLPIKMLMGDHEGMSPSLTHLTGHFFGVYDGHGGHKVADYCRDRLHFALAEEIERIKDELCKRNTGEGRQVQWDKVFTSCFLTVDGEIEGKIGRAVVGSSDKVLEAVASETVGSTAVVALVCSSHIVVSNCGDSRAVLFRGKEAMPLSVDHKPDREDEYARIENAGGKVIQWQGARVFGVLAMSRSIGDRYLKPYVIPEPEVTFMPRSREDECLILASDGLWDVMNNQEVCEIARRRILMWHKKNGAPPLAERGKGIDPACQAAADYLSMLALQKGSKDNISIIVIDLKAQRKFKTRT
# T1 sequence (O49686 1-191 Y58H/K59R/V81I/F108A/S122G/M158I/F159V/A160V/T162D): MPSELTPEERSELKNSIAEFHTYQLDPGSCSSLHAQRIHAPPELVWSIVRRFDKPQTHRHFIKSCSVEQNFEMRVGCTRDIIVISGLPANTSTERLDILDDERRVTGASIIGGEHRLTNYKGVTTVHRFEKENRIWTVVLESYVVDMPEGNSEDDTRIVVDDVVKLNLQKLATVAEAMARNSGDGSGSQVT
# B1: PYR1*^-MANDI: PYR1 mutant with 9 mutations, most sensitive to mandipropamid (protein, listed as Arabidopsis thaliana)
# chain: T1 sequence (O49686 1-191 Y58H/K59R/V81I/F108A/S122G/M158I/F159V/A160V/T162D)
# Molecular target: T1, wild type HAB1
# Assay: Yeast two hybrid, mandipropamid-promoted interaction of PYR1 variants with wild type HAB1
# Assay type: cell-based
# Text: To engineer orthogonal mandipropamid responsiveness, we introduced the PYR1^! mutation into the PYR1^MANDI receptor to create a septuple mutant called PYR1^!-MANDI (PYR1^Y58H;K59R;V81I;F108A;S122G;F159L;T162D). This mutant interacts with HAB1^! and HAB^!-2 in response to low μM mandipropamid in yeast two-hybrid assays, but is ˜100-fold less sensitive than the PYR1^MANDI/HAB1 interaction, which responds to concentrations in the low nM range (FIG. 3).
# To improve sensitivity, we mutagenized ligand contacting and interface residues in PYR1^!-MANDI using NNK primers, pooled the mutant libraries, and used the mutagenized receptors in selection experiments using to identify enhancer mutations. The NNK mutagenesis screen targeted the following residues: P55, H60, F61, I62, K63, V83, S85, G86, L87, P88, A89, S92, E94, I110, H115, R116, L117, Y120, E141, P148, G150, N151, D154, D155, T156, M158, A160, V163, V164, L166, N167, and K170. […] Since M158 and A160 flank the F159V mutation present in PYR1^MANDI, we inferred that the closely located orthogonalizing T162D mutation in PYR1^!-MANDI may have reduced mandipropamid sensitivity by altering the local structure of the C-terminal α3-helix, which participates in ligand-induced conformational changes needed for PP2C binding (Nishimura et al., 2009). […]
molecule,measurement,setting,value
B1,fold less sensitivity to mandipropamid than the orthogonal interaction,FIG. 6,~10 fold
same,interaction with wild type HAB1,yeast two hybrid,weakly interacts
